According to article PMC6803640, “Oligomeric state, hydrodynamic properties and target recognition of human Calcium and Integrin Binding protein 2 (CIB2)” (Scientific Reports, 2019):
Values joined by “and” are separate entries in the source; they are usually repeats but may differ in a detail not shown here. Identical values can stand only once. “Also recorded” adds a separate entry of the source.

Tests used:
Dynamic light scattering = type: physicochemical; conditions: 37 °C, fractions eluted from SEC (CIB2 A2 band), mean ± SEM; n = 15 (CIB2), 18 (Rec), 30 (CaM); 1.8 µM CIB2, 11 µM Rec, 7.4 µM CaM
Procedure: DLS measurements were performed using Zetasizer Nano-S (Malvern Instruments) at 37 °C by setting the same parameters for hydrodynamic diameter estimation as in ref.[26]. The estimation was based on 15–30 measurements, each consisting of at least 13 repetitions; data in Table 1 are reported as mean ± standard error of mean (SEM). DLS samples for each protein are the same collected in the Analytical Size Exclusion Chromatography.
(§1) His-tagged proteins, and then blocked via amine coupling as explained above. Preparation of the […]
approximately 2250 RU of CIB2 immobilized. In binding experiments, peptide concentration was varied in the 230 nM- 30 μM range for both α7B_M, and α7B_C, and experiments were repeated 4 times, both with the HBS buffer described above (containing 1 mM MgCl2) and with further addition of 2 mM CaCl2. Flow rate was set to 20 μl min−1 in all binding experiments, and the dissociation […]
Figure S1: DLS measurements of the SEC collected peaks. CIB2 band A2 (A), Rec (B) and CaM (C). Each data set consisted of 15-30 measurements (grey lines), with 13-15 repetitions each. Colored lines are referred to the average distribution. Temperature was set to 37°C and samples were equilibrated for 2 min before measurements.
Figure S2: Time-resolved proteolysis experiments. […]

Trypsin = test: Limited proteolysis of CIB2 with trypsin; conditions: 30 min, 25 °C, 25 µM CIB2, trypsin 1:100, SDS-PAGE
Procedure: Figure 5 CIB2 limited proteolysis. (A) 10 µM CIB2 was incubated at 25 °C in the presence of 1 mM EDTA (Apo), 500 µM EGTA + 1 mM Mg^2+ (Mg^2+) and 1 mM Mg^2+ + 2 mM Ca^2+ for 10 minutes at 25 °C. Samples were boiled and loaded in a 18% SDS polyacrylamide gel. (B) Limited proteolysis was performed incubating trypsin with 25 µM CIB2 in the same concentrations of ions used for (A) (protein:enzyme ratio was 100:1). Samples were collected at different times, boiled and loaded on a 18% SDS-PAGE. Both gels run for 45–50 min, then they were Coomassie Blue-stained. The figure results from two separate gels, which have been reported in full length in Fig. S6.
Limited proteolysis experiments were performed incubating 25 µM CIB2 in the presence of Trypsin (Sigma) in a ratio 1:100 enzyme:CIB2 at 25 °C. Three conditions were tested: 1 mM EDTA, 500 µM EGTA + 1 mM Mg^2+ and 1 mM Mg^2+ + 2 mM Ca^2+. Time-resolved proteolysis patterns are reported in Supplementary Materials (Fig. S2), results shown in Fig. 5 refer to reactions stopped after 5 min and 30 min. Proteolysis products were loaded on a 15% or 18% SDS gel, as indicated.
as §1
approximately 2250 RU of CIB2 immobilized. […]

human CIB2 = target: T1, human CIB2 (Homo sapiens, UniProt O75838); test: SPR CIB2 dimerization; type: binding; conditions: amine-coupled CIB2 (130 RU and 226 RU), CIB2 92 nM – 46 μM injected; Ca^2+ and Mg^2+
T1 construct: made in house
T1 sequence (O75838 1-187): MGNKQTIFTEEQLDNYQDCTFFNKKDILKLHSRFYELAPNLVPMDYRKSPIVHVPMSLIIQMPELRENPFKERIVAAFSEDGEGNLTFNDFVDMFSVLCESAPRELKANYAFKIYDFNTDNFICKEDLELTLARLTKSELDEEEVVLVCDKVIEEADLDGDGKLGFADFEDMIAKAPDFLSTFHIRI
From the text: SPR is a powerful and versatile technique to detect at real time biomolecular interactions, and it can be applied to study protein oligomerization, in particular dimerization, when care is taken to immobilize on the surface of a sensor chip low amounts of proteins under controlled conditions[27]–[29]. Two independent experiments were run following low levels of amine-coupling of CIB2 (130 RU and 226 RU, respectively) on the surface of a sensor chip. […]
by summing the volume of each residue and correcting the final volume for electrostriction as explained in Ref.4, therefore the specific volume for Rec, CaM and CIB2 were 0.712, 0.694 and 0.715 cm3/g respectively. The molecular weight used for the estimation of hydrodynamic diameter was calculated based on the effective protein sequence of each pdb file using Protein Calculator 3.4 (http://protcalc.sourceforge.net/).
Surface plasmon resonance analysis
A SensiQ Pioneer surface plasmon resonance instrument (FortéBio Pall) was employed for the investigation of the CIB2 dimerization and for the real-time monitoring of its interaction with selected peptides. For studies of on-chip CIB2 dimerization, HBS buffer (20 mM HEPES, pH 7.5, 150 mM KCl, 1 mM MgCl2, 50 µM EDTA, 0.005% Tween 20), was used both as immobilization and running buffer, with the addition of fresh 1 mM DTT just before each experiment. […]

B1: CIB2: Recombinant human CIB2, Ca^2+ and Mg^2+-binding protein (protein)
chain: MGNKQTIFTEEQLDNYQDCTFFNKKDILKLHSRFYELAPNLVPMDYRKSPIVHVPMSLIIQMPELRENPFKERIVAAFSEDGEGNLTFNDFVDMFSVLCESAPRELKANYAFKIYDFNTDNFICKEDLELTLARLTKSELDEEEVVLVCDKVIEEADLDGDGKLGFADFEDMIAKAPDFLSTFHIRI
modifications: left off: His tag, end not stated, cleaved
- DLS Ø hydrodynamic diameter (Dynamic light scattering): 5.4 ± 0.2 nm and 5.4 ± 0.2 [15] nm
- native band after trypsin (Trypsin; 1 mM EDTA (apo)): completely lost
- native band after trypsin (Trypsin; 1 mM Mg^2+ or 1 mM Mg^2+ + 2 mM Ca^2+): permitted the detection of the native CIB2 band even after 30 min
- dimerization signal by SPR (human CIB2): sensorgrams, except for some non-specific bulk effect; also recorded: In no case was a signal detected; also recorded: SPR did not detect dimerization
